Tests used:
DdrC [1] = target: T1, DdrC (Deinococcus radiodurans R1 ATCC 13939, UniProt Q9RYE6 1-231); assay: EMSA; discrete complex band appears at 40 nM DdrC; 3.3 nM DNA; Buffer A: 40 mM Tris-HCl pH 7.8, 5 mM MgCl2, 1.5 mM DTT, 50 mM NaCl, 12% glycerol; 4 C (15 min stated for plasmid/viral DNA); gels run at 4 C; conditions: protein: recombinant; tags: C-terminal 6xHis (pET26b)
T1 sequence: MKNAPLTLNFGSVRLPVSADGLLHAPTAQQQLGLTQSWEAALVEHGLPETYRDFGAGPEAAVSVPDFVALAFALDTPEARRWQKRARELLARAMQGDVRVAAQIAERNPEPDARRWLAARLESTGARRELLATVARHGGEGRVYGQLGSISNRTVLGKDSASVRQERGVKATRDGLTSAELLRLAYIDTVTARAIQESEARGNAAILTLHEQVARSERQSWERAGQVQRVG

DdrC [2] = target: T1, DdrC; assay: EMSA; same efficiency as 37% GC 81-mer; DdrC 0.175-2.8 uM; Buffer A: 40 mM Tris-HCl pH 7.8, 5 mM MgCl2, 1.5 mM DTT, 50 mM NaCl, 12% glycerol; 4 C (15 min stated for plasmid/viral DNA); gels run at 4 C; conditions: protein: recombinant; tags: C-terminal 6xHis (pET26b); label: 5' Cy5
DdrC [3] = target: T1, DdrC; assay: EMSA; same efficiency as 65.4% GC 81-mer; DdrC 0.175-2.8 uM; Buffer A: 40 mM Tris-HCl pH 7.8, 5 mM MgCl2, 1.5 mM DTT, 50 mM NaCl, 12% glycerol; 4 C (15 min stated for plasmid/viral DNA); gels run at 4 C; conditions: protein: recombinant; tags: C-terminal 6xHis (pET26b); label: 5' Cy5

B1: oligo-67 ss (ssDNA)
DNA: CTGTTTAAGAAATTCACCTCGAAAGCAAGCTGATAAACCGATACAATTAAAGGCTCCTTTTGGAGCC
Question: Does B1 bind (DdrC [1])?
Answer: binds

B2: 81-mer 65.4% GC (ssDNA)
DNA: GTTGCTGGACGTACAGCGCCACTATGGCCGCCTGGGCTGGACCAGCGGCGAGATTCCGTCCGGGGGCTACCAGTTTCCCAT
Question: Does B2 bind (DdrC [2])?
Answer: binds

B3: 81-mer 37% GC (ssDNA)
DNA: GATTACCACGAGGAGTATCTTAAGAATTCTGATATACTTGAAGAAGACATACAGGAACAAGAACAAAGACTGAACGAGCTT
Question: Does B3 bind (DdrC [3])?
Answer: binds

— paper PMC5436757, “In vivo and in vitro characterization of DdrC, a DNA damage response protein in Deinococcus radiodurans bacterium”
